Measured values published in US20220010008A1.
Where a chain is given by its changes, count along the chain named. Where “and” joins values, the source holds several entries; their conditions need not be identical. Equal values may be shown once.

B1: 147D7H2 (murine hybridoma lead antibody) (antibody, V domains shown)
VH: EVQLQQSGAELVKPGASVKLSCTASGFNIKDYFIHWVKQRTEQGLEWIGRIDTEDGETKYAPKFQGKATITIDTSSNTAYLYFSSLTSEDTAMYYCARYGNYVAMDYWGQGTSVTVSS
VL: QIVLTQSPALMSASPGEKVTMTCSASSSVSYMFWYQQKPSSSPKPWIYLTSKLASGVPARFSGSGSGTSYSLTISSVEAEDAATYYCQQWNSNPYTFGGGTKLEIK
B2: 151G3B11 (murine hybridoma lead antibody) (antibody, V domains shown)
VH: EVHLQQSGAELVKPGASVKLSCTASGFNIKDYYMHWVKQRTEQGLEWIGRIDPEDGETKYAPKFQGQATITADTSSNTANLQLSSLTSEDTAVYYCARYGNFPDYWGPGTTLTVSS
VL: B1 VL with F33Y, S40R, V77M
B3: 154F10G8 (murine hybridoma lead antibody) (antibody, V domains shown)
VH: QVQLQQPGAELVKPGASVKLSCKASGYTFTSYWITWVKQRPGQGLEWIGDIYPGSGSTFYNEKFKSEATLTVDTSSSTAYMQLSSLTSEDSAVFYCSTETTLGYWGQGTTLTVSS
VL: DVLMTQTPLSLPVSLGDQASISCRSSQSIVHNNGNTYLEWYLQKPGQSPKLLIYKVSNRFSGVPDRFSGSGSGTDFTLKISRVEAEDLGVYYCFQGSHVPFTFGSGTKLEIK
B4: 69F2F3 mouse-human chimeric antibody (antibody, human IgG4, V domains shown)
VH: QVQLKQSGPGLVQPSQSLSITCTVSGFSLSNYGVHWVRQSPGKGLEWLGVIWSGGSTDYNAAFKSRLSITKDNSKSQVVFRMNSLQTDDTATYYCARNKDFLDYWGQGTKFTVSS
VL: DIVMTQSPSSLTVTAGEKVTMTCKSSQGLLNSGNQKNYLTWYQQKPGQPPKLLIYWASTRESGVPDRFTGSGSGTDFTLTISSVQAEDLAVYYCQNDYHFPLTFGAGTKLELK
B5: 102A2E11B6 mouse-human chimeric antibody (antibody, human IgG4, V domains shown)
VH: QVQLRQSGPGLVQPSQSLSITCTVSGFSLTSYGVHWVRQSPGKGLEWLGVIWSGGSTDYNAVFMSRLSISKDSSKSQVFFKMNSLQTDDTAIYYCARNRYVLDYWGQGTSVTVSS
VL: DIVMTQSPSSLSVSAGERVTMRCKSSQSLLTSGDQKNHLAWYQQKPGQPPKLLIYGASTRESGVPDRFTGSGSGTDFTLTITSVQAEDLAVYYCQNDHSFPLTFGAGTKLELK
B6: 69F2F3 (murine hybridoma lead antibody) (antibody, V domains shown)
VH: B4 VH
VL: B4 VL
B7: 102A2E11B6 (murine hybridoma lead antibody) (antibody, V domains shown)
VH: B5 VH
VL: B5 VL

Molecular target: recombinant human IL-5 protein (human) (UniProt P05113)
Test: FACS, biotin-IL-5 bound to CHOK1 hIL-5Ra/CSF2RB cells with Ab 1.3333 nM

Binder	Fluorescence intensity
B1	55
B2	46
B3	66

Molecular target: recombinant human IL-5 protein (human) (UniProt P05113)
Test: FACS, biotin-IL-5 bound to CHOK1 hIL-5Ra/CSF2RB cells with Ab 6.6667 nM

Binder	Fluorescence intensity
B1	36
B2	34
B3	43

Molecular target: recombinant human IL-5 protein (human) (UniProt P05113)
Test: FACS, biotin-IL-5 bound to CHOK1 hIL-5Ra/CSF2RB cells with Ab 0.0533 nM

Binder	Fluorescence intensity
B1	90
B2	84
B3	92

Molecular target: recombinant human IL-5 protein (human) (UniProt P05113)
Test: FACS, biotin-IL-5 bound to CHOK1 hIL-5Ra/CSF2RB cells with Ab 0.0004 nM

Binder	Fluorescence intensity
B1	96
B2	93
B3	90

Molecular target: recombinant human IL-5 protein (human) (UniProt P05113)
Test: FACS, biotin-IL-5 bound to CHOK1 hIL-5Ra/CSF2RB cells with Ab 0.0021 nM

Binder	Fluorescence intensity
B1	93
B2	86
B3	91

Molecular target: recombinant human IL-5 protein (human) (UniProt P05113)
Test: SPR, human IL-5 immobilized on CM5 chip, chimeric antibody as analyte, 1:1 global fit

Binder	Kd	koff	kon
B4	< 0.12 nM	< 1e-05 s⁻¹	81900 M⁻¹ s⁻¹
B5	0.221 nM	2.73e-05 s⁻¹	124000 M⁻¹ s⁻¹

Molecular target: recombinant human IL-5 protein (human) (UniProt P05113)
Test: FACS, biotin-IL-5 bound to CHOK1 hIL-5Ra/CSF2RB cells with Ab 33.3333 nM

Binder	Fluorescence intensity
B1	31
B2	30
B3	34

Molecular target: recombinant human IL-5 protein (human) (UniProt P05113)
Test: FACS, biotin-IL-5 bound to CHOK1 hIL-5Ra/CSF2RB cells with Ab 0.0107 nM

Binder	Fluorescence intensity
B1	88
B2	87
B3	91

Molecular target: recombinant human IL-5 protein (human) (UniProt P05113)
Test: FACS, biotin-IL-5 bound to CHOK1 hIL-5Ra/CSF2RB cells with Ab 0.2667 nM

Binder	Fluorescence intensity
B1	74
B2	69
B3	86

Molecular target: recombinant human IL-5 protein (human) (UniProt P05113)
Test: SPR, human IL-5 immobilized on chip, 1:1 fit

Binder	Kd	koff	kon
B6	0.0221 nM	8.14e-06 s⁻¹	368000 M⁻¹ s⁻¹
B1	< 0.0504 nM	< 1e-05 s⁻¹	198000 M⁻¹ s⁻¹
B2	0.0186 nM	9.04e-06 s⁻¹	486000 M⁻¹ s⁻¹
B3	0.158 nM	6.65e-05 s⁻¹	422000 M⁻¹ s⁻¹
B7	0.063 nM	2.32e-05 s⁻¹	369000 M⁻¹ s⁻¹

Molecular target: recombinant human IL-5 protein (human) (UniProt P05113)
Test: cell-based or functional assay

Binder	RLU, CTLL-2 cell proliferation stimulated by IL-5, Ab conc. 0.000170667 nM	RLU, CTLL-2 cell proliferation stimulated by IL-5, Ab conc. 0.000853333 nM	RLU, CTLL-2 cell proliferation stimulated by IL-5, Ab conc. 0.004266667 nM	RLU, CTLL-2 cell proliferation stimulated by IL-5, Ab conc. 0.02133333 nM	RLU, CTLL-2 cell proliferation stimulated by IL-5, Ab conc. 0.1066667 nM	RLU, CTLL-2 cell proliferation stimulated by IL-5, Ab conc. 0.5333334 nM	RLU, CTLL-2 cell proliferation stimulated by IL-5, Ab conc. 2.666667 nM	RLU, CTLL-2 cell proliferation stimulated by IL-5, Ab conc. 13.33333 nM	RLU, CTLL-2 cell proliferation stimulated by IL-5, Ab conc. 66.66666 nM	RLU, CTLL-2 cell proliferation stimulated by IL-5, Ab conc. 3.41333E-05 nM
B1	56800 RLU and 61000 RLU	56400 RLU and 57300 RLU	50600 RLU and 55900 RLU	49000 RLU and 45200 RLU	26500 RLU and 26300 RLU	16700 RLU and 15200 RLU	13700 RLU and 14400 RLU	12900 RLU and 13500 RLU	10700 RLU and 11300 RLU	58900 RLU and 59800 RLU
B2	58000 RLU and 54700 RLU	56500 RLU and 56300 RLU	53600 RLU and 50900 RLU	39300 RLU and 38800 RLU	14000 RLU and 12200 RLU	12500 RLU and 11700 RLU	8720 RLU and 8840 RLU	7410 RLU and 6600 RLU	6500 RLU and 5240 RLU	60600 RLU and 48600 RLU
B3	57900 RLU and 56300 RLU	64800 RLU and 54500 RLU	64200 RLU and 64300 RLU	56900 RLU and 52300 RLU	36100 RLU and 30000 RLU	21500 RLU and 20200 RLU	19700 RLU and 17100 RLU	16200 RLU and 14700 RLU	11500 RLU and 10900 RLU	58700 RLU and 61300 RLU

Same assay, conditions: not given

Binder	RLU, TF-1 cell proliferation stimulated by IL-5, Ab conc. 0.00001 nM	RLU, TF-1 cell proliferation stimulated by IL-5, Ab conc. 0.00003 nM	RLU, TF-1 cell proliferation stimulated by IL-5, Ab conc. 0.00017 nM	RLU, TF-1 cell proliferation stimulated by IL-5, Ab conc. 0.00085 nM	RLU, TF-1 cell proliferation stimulated by IL-5, Ab conc. 0.00427 nM	RLU, TF-1 cell proliferation stimulated by IL-5, Ab conc. 0.02133 nM	RLU, TF-1 cell proliferation stimulated by IL-5, Ab conc. 0.10667 nM	RLU, TF-1 cell proliferation stimulated by IL-5, Ab conc. 0.53333 nM	RLU, TF-1 cell proliferation stimulated by IL-5, Ab conc. 2.66667 nM	RLU, TF-1 cell proliferation stimulated by IL-5, Ab conc. 13.33333 nM
B1	111000 RLU and 112000 RLU	111000 RLU and 113000 RLU	116000 RLU and 112000 RLU	105000 RLU	90300 RLU and 86300 RLU	72200 RLU and 55900 RLU	42300 RLU and 43600 RLU	36200 RLU and 39400 RLU	39900 RLU and 38100 RLU	35500 RLU and 37500 RLU
B2	104000 RLU and 105000 RLU	95400 RLU and 98300 RLU	86500 RLU and 91300 RLU	72700 RLU and 70700 RLU	51100 RLU and 54700 RLU	49900 RLU and 47200 RLU	40400 RLU	35100 RLU and 37700 RLU	37900 RLU and 34300 RLU	35300 RLU and 36600 RLU
B3	108000 RLU and 113000 RLU	110000 RLU and 115000 RLU	114000 RLU and 108000 RLU	99300 RLU and 103000 RLU	76100 RLU and 79700 RLU	54800 RLU and 57500 RLU	42100 RLU and 51500 RLU	40600 RLU and 42300 RLU	34500 RLU and 42000 RLU	33800 RLU and 35300 RLU
